Laboratory results reported in patent US20250011456A1, “ANTIBODIES AGAINST CD14 AND USES THEREOF” (Villanelle Life Science Inc, priority 2023, published 2025).

T1: recombinant human CD14 (B294801, histidine tagged) (Homo sapiens, UniProt P08571)
T1 construct: His; purchased Shanghai BaiYing Biotechnology Co., Ltd B294801 (Batch number 20200518A22)
T1 sequence (P08571 20-345): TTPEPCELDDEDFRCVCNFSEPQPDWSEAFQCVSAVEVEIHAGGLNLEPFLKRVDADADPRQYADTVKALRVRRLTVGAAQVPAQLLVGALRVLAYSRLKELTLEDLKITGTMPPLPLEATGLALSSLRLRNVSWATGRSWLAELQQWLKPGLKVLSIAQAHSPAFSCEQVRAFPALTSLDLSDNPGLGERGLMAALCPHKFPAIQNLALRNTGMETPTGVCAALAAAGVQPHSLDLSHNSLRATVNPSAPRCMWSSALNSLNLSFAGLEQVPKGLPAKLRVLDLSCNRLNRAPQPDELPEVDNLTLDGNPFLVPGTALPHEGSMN


Target: T1, recombinant human CD14 (B294801, histidine tagged)
Experiment: Biacore 8K kinetic and affinity test of humanized antibodies (Example 8)
Assay type: binding
Details: for Kd / koff (1:1 binding) / kon (1:1 binding): Biacore 8K, analyte B294801 0.78125-25 nM, capture 1 μg/mL; for Kd: KD=koff/kon; for affinity compared with the mouse antibody D6DD3D001: Biacore, B294801 antigen; for Change Factor (ratio of KD of the humanized to mouse antibody): relative to mouse antibody D6DD3D001
Experimental: Experimental reagents and consumables included Protein A chip (Cytiva, 29127556). Main instruments and equipment included Biacore 8K (Cytiva), shaker (Taicang Huamei), ELISA system (Molecular Devices), centrifuge (Baiyang), ultrapure water system (Millipore), and thermostatic incubator (BLUE PARD).
The antigen used for the binding affinity measurements is B294801. This antigen is a recombinant human CD14 antigen that is histidine tagged and has a molecular weight of 36 kDa. B294801 was purchased from Shanghai BaiYing Biotechnology Co., Ltd (name: Recombinant Human CD14/His Protein; Batch number 20200518A22). D6DD3D001 is a mouse antibody, and D6DD3D002-D6DD3D0016 are humanized antibodies. The antibodies are recombinant, human (hFc Tag). Selected parameters of the experimental samples are shown in Table 8-1, with MW referring to molecular weight in kiloDaltons (kDa).
The Biacore 8K platform was used to test the kinetic and affinity properties of the antibody. The operation was carried out according to the system instructions and indications.
The equilibrium dissociation constant (KD) reflects the affinity of the antibody to the target, with a smaller value indicating a stronger affinity. KD (in units of molarity) is determined by the ratio of the dissociation rate constant (koff) and the association rate constant (kon), that is, KD=Koff/kon.
15 humanized antibodies (numbered D6DD3D002-D6DD3D0016) and 1 mouse antibody (number D6DD3D001) were tested. For the experiments, the analyte solution comprises the B294801 antigen with an analyte concentration of 0.78125 nM, 1.5625 nM, 3.125 nM, 6.25 nM, 12.5 nM, and 25 nM. The capture concentration was 1 μg/mL. In Table 8-3, the change factor is the ratio of the equilibrium dissociation constant KD of the humanized to mouse antibody, and reflects the change in affinity after humanization.

Molecule | Kd | koff (1:1 binding) | kon (1:1 binding) | affinity compared with the mouse antibody D6DD3D001 | Change Factor (ratio of KD of the humanized to mouse antibody)
D6DD3D005: humanized anti-CD14 antibody; VH SEQ ID NO: 17, VL SEQ ID NO: 19 (antibody, V domains shown) VH: QVQLQESGPGLVKPSETLSLTCTVSGYSITSDSAWNWIRQPPGKGLEWIGYISYSGSTSYNPSLKSRVTISRDTSKNQFSLKLSSVTAADTAVYYCVRGLRFAYWGQGTLVTVSS VL: EIVLTQSPATLSLSPGERATLSCRASESVDSYVNSFLHWYQQKPGQAPRLLIYRASNLQSGIPARFSGSGSRTDFTLTISSLEPEDVAVYYCQQSNEDPYTFGQGTKLEIK | 0.529 nM | 0.000798 s⁻¹ | 1.51e+06 M⁻¹ s⁻¹ | approximately equivalent to the affinity of the antibody D6DD3D001 before humanization | 1.09
D6DD3D006: humanized anti-CD14 antibody; VH SEQ ID NO: 21, VL SEQ ID NO: 23 (antibody, V domains shown) VH: QVQLQESGPGLVKPSQTLSLTCTVSGYSITSDSAWNWIRQPPGKGLEWIGYISYSGSTSYNPSLKSRVTISRDTSKNQFSLKLSSVTAADTAVYYCVRGLRFAYWGQGTLVTVSS VL: EIVLTQSPATLSLSPGERATLSCRASESVDSYVNSFLHWYQQKPGQAPRLLIYRASNLQSGIPARFSGSGSRTDFTLTISSLEPEDVAVYYCQQSNEDPYTFGQGTKLEIK | 0.602 nM | 0.000862 s⁻¹ | 1.43e+06 M⁻¹ s⁻¹ |  | 1.24
D6DD3D010: humanized anti-CD14 antibody; VH SEQ ID NO: 37, VL SEQ ID NO: 39 (antibody, V domains shown) VH: QVQLQESGPGLVKPSETLSLTCTVSGYSITSDSAWNWIRQPPGKGLEWIGYISYSGSTSYNPSLKSRVTISRDTSKNQFSLKLSSVTAADTAVYYCVRGLRFAYWGQGTLVTVSS VL: DIVLTQSPDSLAVSLGERATINCRASESVDSYVNSFLHWYQQKPGQPPKLLIYRASNLQSGVPDRFSGSGSRTDFTLTISSLQAEDVAVYYCQQSNEDPYTFGQGTKLEIK | 0.555 nM | 0.00105 s⁻¹ | 1.9e+06 M⁻¹ s⁻¹ | approximately equivalent to the affinity of the antibody D6DD3D001 before humanization | 1.14
D6DD3D007: humanized anti-CD14 antibody; VH SEQ ID NO: 25, VL SEQ ID NO: 27 (antibody, V domains shown) VH: QVQLQESGPGLVKPSQTLSLTCTVSGGSISSDSAWNWIRQHPGKGLEWIGYISYSGSTSYNPSLKSRVTISRDTSKNQFSLKLSSVTAADTAVYYCVRGLRFAYWGQGTLVTVSS VL: DIVLTQSPDSLAVSLGERATINCRASESVDSYVNSFLHWYQQKPGQPPKLLIYRASNLQSGVPDRFSGSGSRTDFTLTISSLQAEDVAVYYCQQSNEDPYTFGQGTKLEIK |  | 0.00342 s⁻¹ | 2.11e+06 M⁻¹ s⁻¹ |  | 
D6DD3D015: humanized anti-CD14 antibody; VH SEQ ID NO: 57, VL SEQ ID NO: 59 (antibody, V domains shown) VH: QVQLQESGPGLVKPSETLSLTCTVSGYSITSDSAWNWIRQPPGKGLEWIGYISYSGSTSYNPSLKSRVTISRDTSKNQFSLKLSSVTAADTAVYYCVRGLRFAYWGQGTLVTVSS VL: DIQLTQSPSSLSASVGDRVTITCRASESVDSYVNSFLHWYQQKPGKAPKLLIYRASNLQSGVPSRFSGSGSRTDFTLTISSLQPEDVATYYCQQSNEDPYTFGQGTKLEIK | 0.532 nM | 0.000843 s⁻¹ | 1.59e+06 M⁻¹ s⁻¹ | approximately equivalent to the affinity of the antibody D6DD3D001 before humanization | 1.10
